In data set [1] the target is T1, T5L-TRPM2 (Homo sapiens, UniProt O94759, G984L/INS985E/Y985D). Nature of the data set: Excised inside-out patch-clamp recordings, ADPR-dependent channel activation. The class given is cell-based. On the procedure: (§1) Oocytes isolated from anaesthetized Xenopus laevis were digested with collagenase, injected with 10–70 ng cRNA, and stored at 18°C. Recordings were done 2–3 days after injection.
The tip of the patch pipette was filled to ~1 cm height with 140 mM Na-gluconate, 2 mM Mg-gluconate2, 10 mM HEPES (pH 7.4 with NaOH); free [Ca^2+] ~4 μM. The pipette electrode was placed into a 140-mM NaCl-based solution carefully layered on top. Bath solution contained 140 mM Na-gluconate, 2 mM Mg-gluconate2, 10 mM HEPES (pH 7.1 with NaOH), and either 1 mM EGTA (to obtain 'zero' (~8 nM) Ca^2+) or 1 mM Ca-gluconate2 (to obtain 125 μM free Ca^2+) ([Csanády and Törocsik, 2009]). Na-ADPR was used at final concentrations of 0.32, 1, 3.2, 10, 32, 100, or 1000 μM, and the Na^+ salt of ε-ADPR at 100 μM. Macroscopic TRPM2 currents were recorded at 25°C at a membrane potential of −20 mV. Currents were amplified, filtered at 2 kHz (Axopatch 200B), digitized at 10 kHz (Digidata 1322A), and stored to disk (Pclamp9, Molecular Devices, Sunnyvale, CA, USA).
Dose dependence of ADPR-induced current activation, expressed as the ratio of mean macroscopic currents observed in the presence of various test [ADPR] (I) and 32 (or 100) μM ADPR (Imax) in the same patch, was fitted to the Hill equation (I/Imax = [ADPR]^n/(K^n+[ADPR]^n). Dose dependence of ADPR-activation in the presence of 100 μM ε-ADPR was expressed as the ratio of the currents observed in the presence of various test [ADPR] + 100 μM ε-ADPR (I) and 100 μM ADPR alone (Imax) in the same patch, and was fitted to the Hill equation substituting K' = K(1+[ε-ADPR]/KI) instead of K (K and n fixed to their control values). Macroscopic current decay time courses following removal of ADPR or Ca^2+ were fitted by single exponentials using the method of least squares.
(In patch-clamp work, channel activity is measured electrically.)

The next data set addresses T5L-TRPM2-Chi2 (Homo sapiens, UniProt O94759+Q9BW91, G984L/INS985E/Y985D, form not given). The data set is described as above. The note with it: current in 1 μM ADPR divided by that in 32 μM ADPR; compared to TRPM2. The class given is cell-based.
Excerpt: The noninactivating TRPM5-like pore mutant of TRPM2 (T5L-TRPM2) was contained in the pGEMHE vector ([Tóth and Csanády, 2012]). The NUDT9H domain of TRPM2 was replaced by Chi2A, Chi3 or Chi4 using the native BlpI-site upstream of the domain and an XbaI-site downstream of the Stop-codon in each chimeric construct. Single-base mutations to generate Stop-codons immediately upstream of the hexahistidine tags of Chi3 and Chi4 were then introduced (QuickChange II, Agilent Technologies, Santa Clara, CA, USA), yielding TRPM2-Chi3 and TRPM2-Chi4; TRPM2-Chi2 lacked a His-tag because it was derived from Chi2A.
as §1
The tip of the patch pipette was filled to ~1 cm height with 140 mM Na-gluconate, 2 mM Mg-gluconate2, 10 mM HEPES (pH 7.4 with NaOH); free [Ca^2+] ~4 μM. The pipette electrode was placed into a 140-mM NaCl-based solution carefully layered on top. […] Macroscopic TRPM2 currents were recorded at 25°C at a membrane potential of −20 mV. […]
Dose dependence of ADPR-induced current activation, expressed as the ratio of mean macroscopic currents observed in the presence of various test [ADPR] […]

Data set [2] can be described thus: Spontaneous ADPR degradation at basic pH (TLC and Pi assay, no ADPRase). The class given is physicochemical. As to the method:
(§2) ADPRase activities of mitochondrial NUDT9, NUDT9H, and the purified chimeric constructs (Chi2, Chi3S, Chi4S) were quantitated by densitometric detection of the AMP product on TLC sheets. The 20-μl reaction mixtures contained 0.1, 0.5 or 1 μM purified protein, 10 mM Na-ADPR (Sigma-Aldrich, St. Louis, MO, USA), 16 mM MgCl2, and 50 mM reaction buffer (RB). The reaction buffers used were: 50 mM MES, pH 6.5 with NaOH (RB1); 50 mM HEPES, pH 7.1 with NaOH (RB2); 50 mM Tris, pH 8.5 with HCl (RB3); RB1 + 100 mM NaCl (RB4); RB2 + 100 mM NaCl (RB5), and RB3 + 100 mM NaCl (RB6). For the enzyme kinetics experiments on NUDT9 and Chi2, aliquots from the reaction mixtures were collected at the indicated time points; 3 independent experiments were performed for both proteins and each condition, and data are presented as mean ± SEM. All incubations were at room temperature (~25°C). For TLC, 1-μl aliquots of reaction mixtures were placed on Polygram SIL G/UV254 plates (Macherey-Nagel, Düren, Germany), dried and developed in 0.2 M NH4HCO3 in ethanol:water 7:3 (vol/vol). Nucleotides were visualized under UV light. Densitometry of nucleotide intensities was done using ImageJ software.
(§3) The ADPRase activities of the same proteins were additionally tested with a more sensitive assay based on colorimetric detection of Pi (Pi assay) liberated from both ADPRase products AMP and R5P by co-applied alkaline phosphatase (AP) ([Rafty et al., 2002]). AP liberates Pi from AMP and R5P, but not from intact ADPR: thus, Pi is produced from hydrolyzed ADPR at a molar ratio of 1:2. In brief, 150-μl reaction volumes containing 5 or 50 nM purified protein, 5–6 U bovine AP, 1 mM Na-ADPR, 16 mM MgCl2, and 50 mM reaction buffer at various pH values (MES 6.5, HEPES 7.1, Tris 8.5, and Tris 9.0) were incubated for 30 min at either 37°C or room temperature. The reaction was stopped and Pi visualized by adding 850 μl coloring solution (6:1 vol/vol ratio mixture of 0.42% ammonium molybdate tetrahydrate in 1N H2SO4 and 10% L-ascorbic acid) followed by incubation for 20 min at 45°C. Optical density was then measured at 820 nm (NanoPhotometer P300, Implen GmbH, Munich, Germany). Coloring solution was freshly made, and standard curve (0.050–2 mM KH2PO4) obtained, daily. Reactions with 1 mM AMP or R5P (instead of ADPR) served as positive controls. All reagents were from Sigma-Aldrich.

The target of data set [3] is T1, T5L-TRPM2. On the set-up: method as in Tóth and Csanády, 2012. As to conditions: previously established; ref Tóth and Csanády, 2012; read-out: half-saturating concentration; cited from earlier work.
The nature of data set [4]: Enzymatic (ADPRase) activity assay using thin-layer chromatography (TLC). In kind it is biochemical. The note with it: for ADPRase activity (conversion of ADPR into AMP and R5P, TLC): 1 μM protein, 16 mM Mg2+, 2-hr incubation, pH 6.5, 7.1 and 8.5, absence or presence of 100 mM NaCl; for ADPRase activity (conversion of ADPR into AMP and R5P, TLC) / kcat: 10 mM ADPR, room temperature; for Enzyme: Table 1 summary of ADPRase activity; for kcat: 0.5 μM protein. On the procedure:
as §2

Data set [5] can be described thus: Enzymatic activity assay using colorimetric detection of inorganic phosphate (Pi assay, coupled to alkaline phosphatase). In kind it is biochemical. The note with it: 5 or 50 nM protein co-applied with 1 mM ADPR and AP, 30 min, pH 6.5-9.0, 37°C or RT. As to the method:
as §3, with “Reactions with 1 mM AMP or R5P (instead of ADPR) served as positive controls. All reagents were from Sigma-Aldrich.” left out
Molecular turnover rates (kcat) for NUDT9 were calculated from the [Pi] released in samples containing 5 nM NUDT9, in which [ADPR] remained >0.9 mM (i.e., saturating [[Perraud et al., 2003]]) throughout the 30-min incubation period, using the equation kcat = 0.5[Pi]released/5 nM/1800 s.

Data set [6] in a line: Solubility of recombinant proteins expressed in E.coli. The class given is physicochemical. As to conditions: for Soluble: expressed in E.coli, Table 1. As to the method: The soluble proteins (NUDT9 and Chi2) were expressed and purified as previously described for mitochondrial NUDT9 ([Tóth et al., 2014]). In brief, bacterial cultures were grown at 37°C in Luria-Bertani medium supplemented with the appropriate antibiotic and induced with 1 mM isopropyl-β-D-1-thiogalactopyranoside (IPTG) upon reaching OD600 of ~0.7. After 3 hr of incubation, cells were harvested and lysed with sonication in 20 mM Tris (pH 8.5 with HCl) / 200 mM NaCl. The cleared supernatant was incubated with Ni-Sepharose 6 Fast Flow resin (GE Healthcare Hungary, Hungary) for 3 hr under gentle rotation. The resin was then washed with lysis buffer supplemented with 20 mM imidazole, and the protein eluted with a buffer containing 20 mM Tris (pH 8.5 with HCl), 100 mM NaCl, and 400 mM imidazole.
Chi3S, Chi4S and NUDT9H were little soluble to insoluble when expressed at 37°C, the majority of the proteins ending up in inclusion bodies, but gave tractable (~1–5%) soluble fractions when induced with 0.1 mM IPTG at 25°C overnight. NUDT9H was then purified as NUDT9. Chi3S and Chi4S were purified using Strep-Tactin chromatography following the manufacturer’s instructions (IBA GmbH, Göttingen, Germany).

Details of data set [7]: method as in Perraud et al., 2001, 2003. The note with it: ref Perraud et al., 2001, 2003, cited from earlier work.

The source of these data is article PMC4974056, “The proposed channel-enzyme transient receptor potential melastatin 2 does not possess ADP ribose hydrolase activity” (eLife, 2016).

Several values for one entry are separate records, joined by “and”; a condition that tells them apart may be missing. Equal entries are not always repeated. Where two headings read alike, the source gives them in different places.

Broadly, the kcat is the number of substrate molecules converted per active site and unit of time at saturation.

T1 sequence (O94759 whole entry, stated change not applied): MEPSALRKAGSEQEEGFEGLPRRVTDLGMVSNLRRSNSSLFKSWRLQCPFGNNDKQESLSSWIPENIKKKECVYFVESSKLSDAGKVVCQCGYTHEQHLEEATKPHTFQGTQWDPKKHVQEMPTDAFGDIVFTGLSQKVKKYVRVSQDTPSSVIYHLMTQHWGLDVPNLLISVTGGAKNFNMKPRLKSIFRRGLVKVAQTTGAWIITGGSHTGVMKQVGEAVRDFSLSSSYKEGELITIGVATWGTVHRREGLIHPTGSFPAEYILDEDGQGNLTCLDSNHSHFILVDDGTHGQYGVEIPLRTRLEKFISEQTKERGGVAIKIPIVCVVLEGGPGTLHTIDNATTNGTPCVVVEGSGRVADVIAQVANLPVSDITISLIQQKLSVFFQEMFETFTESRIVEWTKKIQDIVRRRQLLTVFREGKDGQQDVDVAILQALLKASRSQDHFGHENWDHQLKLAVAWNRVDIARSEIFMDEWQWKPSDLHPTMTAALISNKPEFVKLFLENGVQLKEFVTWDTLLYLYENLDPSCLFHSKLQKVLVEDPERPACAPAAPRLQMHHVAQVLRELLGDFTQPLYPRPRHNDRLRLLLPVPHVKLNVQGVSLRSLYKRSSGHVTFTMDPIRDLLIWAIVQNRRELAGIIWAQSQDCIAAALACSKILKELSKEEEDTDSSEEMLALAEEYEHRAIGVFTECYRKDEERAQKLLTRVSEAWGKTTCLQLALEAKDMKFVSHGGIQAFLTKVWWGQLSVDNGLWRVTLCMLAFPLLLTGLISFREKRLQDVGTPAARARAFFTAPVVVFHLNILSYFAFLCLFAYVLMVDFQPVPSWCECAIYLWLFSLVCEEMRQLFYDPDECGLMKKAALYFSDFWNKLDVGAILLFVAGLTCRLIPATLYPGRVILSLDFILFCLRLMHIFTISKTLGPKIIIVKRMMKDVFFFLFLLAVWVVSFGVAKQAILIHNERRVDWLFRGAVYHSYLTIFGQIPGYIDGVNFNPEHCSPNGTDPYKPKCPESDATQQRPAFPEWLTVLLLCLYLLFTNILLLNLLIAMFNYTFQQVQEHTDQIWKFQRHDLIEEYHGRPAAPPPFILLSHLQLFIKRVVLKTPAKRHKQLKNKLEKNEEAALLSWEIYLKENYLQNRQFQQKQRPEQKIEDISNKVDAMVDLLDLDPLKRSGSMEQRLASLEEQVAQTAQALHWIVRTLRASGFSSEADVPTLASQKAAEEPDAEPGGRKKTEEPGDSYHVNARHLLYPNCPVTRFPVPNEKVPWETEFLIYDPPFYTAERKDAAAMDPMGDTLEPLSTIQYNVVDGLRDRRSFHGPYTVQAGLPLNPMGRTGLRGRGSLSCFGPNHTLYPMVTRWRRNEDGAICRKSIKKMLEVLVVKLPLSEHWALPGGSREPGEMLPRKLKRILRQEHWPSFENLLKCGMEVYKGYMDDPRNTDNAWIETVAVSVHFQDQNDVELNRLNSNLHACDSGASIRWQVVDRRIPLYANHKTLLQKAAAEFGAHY
Sequence of T5L-TRPM2-Chi2 (O94759 1-1353, stated change not applied, one chain of several): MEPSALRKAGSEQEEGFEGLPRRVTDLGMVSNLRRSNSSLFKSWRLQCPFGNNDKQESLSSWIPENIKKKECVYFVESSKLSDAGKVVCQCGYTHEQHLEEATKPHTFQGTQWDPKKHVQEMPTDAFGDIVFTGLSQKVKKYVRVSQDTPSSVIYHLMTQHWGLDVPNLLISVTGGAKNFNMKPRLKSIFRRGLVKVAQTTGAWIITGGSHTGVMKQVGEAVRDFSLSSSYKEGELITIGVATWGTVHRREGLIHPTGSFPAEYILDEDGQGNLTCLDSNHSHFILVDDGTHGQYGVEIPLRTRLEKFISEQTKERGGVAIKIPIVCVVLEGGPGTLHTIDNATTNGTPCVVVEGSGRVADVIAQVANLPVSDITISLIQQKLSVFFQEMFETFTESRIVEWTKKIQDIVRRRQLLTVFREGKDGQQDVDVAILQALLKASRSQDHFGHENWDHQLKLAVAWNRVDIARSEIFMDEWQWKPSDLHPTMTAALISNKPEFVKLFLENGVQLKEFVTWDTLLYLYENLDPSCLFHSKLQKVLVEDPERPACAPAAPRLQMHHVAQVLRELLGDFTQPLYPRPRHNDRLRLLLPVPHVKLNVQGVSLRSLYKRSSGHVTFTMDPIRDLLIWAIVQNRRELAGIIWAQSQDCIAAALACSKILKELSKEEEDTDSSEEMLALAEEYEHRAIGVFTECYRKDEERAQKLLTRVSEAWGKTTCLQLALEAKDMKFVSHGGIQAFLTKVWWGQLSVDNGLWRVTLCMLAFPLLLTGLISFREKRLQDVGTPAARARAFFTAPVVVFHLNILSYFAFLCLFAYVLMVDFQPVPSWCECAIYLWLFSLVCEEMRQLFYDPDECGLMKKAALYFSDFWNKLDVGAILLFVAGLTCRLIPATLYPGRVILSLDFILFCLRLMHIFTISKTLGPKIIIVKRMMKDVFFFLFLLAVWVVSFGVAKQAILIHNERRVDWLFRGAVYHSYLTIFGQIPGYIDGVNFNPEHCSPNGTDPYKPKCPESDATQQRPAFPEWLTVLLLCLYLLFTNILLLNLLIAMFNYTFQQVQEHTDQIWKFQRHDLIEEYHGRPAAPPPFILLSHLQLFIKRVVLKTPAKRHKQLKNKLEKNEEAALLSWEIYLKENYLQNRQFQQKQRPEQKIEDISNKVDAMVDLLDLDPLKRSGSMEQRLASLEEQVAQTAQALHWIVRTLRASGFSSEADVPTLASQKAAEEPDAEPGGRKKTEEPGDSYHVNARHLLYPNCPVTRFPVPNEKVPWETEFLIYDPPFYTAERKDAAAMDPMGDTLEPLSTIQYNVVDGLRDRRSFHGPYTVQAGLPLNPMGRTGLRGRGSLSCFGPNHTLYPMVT

Consider `Nc1ncnc2c1ncn2C1OC(COP(=O)(O)OP(=O)(O)OCC2OC(O)C(O)C2O)C(O)C1O` (centres unmarked) [ADPR, adenosine 5'-diphosphoribose], for which the “n (Hill slope for ADPR binding)” value at T5L-TRPM2 [1] (Figure 8B) is 1.3±0.1. The EC50 at T5L-TRPM2 [1] (inside-out patches from Xenopus laevis oocytes, saturating Ca2+, −20 mV, Hill fit (Figure 7H), read-out: K1/2 for ADPR-induced current activation) was 1300 ± 100 nM; on T5L-TRPM2 [3], 1000 nM. The “Fractional activation by 1 μM ADPR” value on T5L-TRPM2-Chi2 is recorded as “reduced”. For the same molecule, the “spontaneous hydrolysis of applied ADPR (Pi assay)” value in data set [2] (1 mM ADPR, 30 min, with AP, with or without Chi4S or NUDT9H) was ~ 1%. In addition, the spontaneous degradation was ~ 0.3% in data set [2] (25°C and pH 8.5, 20 min); ~ 2% in data set [2] (25°C, pH 8.5, 2 hr); ~ 1% in data set [2] (37°C and pH 9, 30 min). Also, the “time constant for spontaneous ADPR hydrolysis” value in data set [2] (25°C and pH 8.5, assuming exponential decay) is recorded as ~ 100 hr. For the same molecule, the “decay time constant of spontaneous degradation” value in data set [2] (25°C, pH 8.5) is recorded as “about 100 h”. Besides, the ADPR degraded spontaneously in data set [2] (25°C, pH 8.5, 24 hr) is reported as ~ 20%. Also, in data set [2] (20 min, pH 8.5, 10 mM ADPR), the “AMP which forms spontaneously” value is ~ 30 μM. For the same molecule, the stability entry in data set [2] (neutral or slightly acidic pH) was “inherently stable”.

For “NUDT9H: isolated C-terminal cytosolic NUDT9-homology domain of TRPM2, recombinant, hexahistidine tag”, in data set [4], the “ADPRase activity (conversion of ADPR into AMP and R5P, TLC)” value was “failed to hydrolyze the nucleotide”; the Enzyme result was “No”. Moreover, in data set [5], the Pi release entry is reported as “did not result in any significant Pi release”. The “stability of purified soluble preparation” value in data set [6] (4°C) is “precipitated overnight at 4 °C”. The Soluble result in data set [6] is listed as “No^¶”. Moreover, the reported turnover rate in data set [7] (isolated NUDT9H) is listed as ~ 0.1 s^-1. In addition, in data set [7] (pH 9 and 37°C), the kcat is given as ~ 0.06 s^-1. For the same molecule, the “reported enzymatic activity, lower than that of NUDT9” value in data set [7] was “about 100 fold”.

B1: NUDT9: soluble, Mg2+-dependent mitochondrial ADPR pyrophosphatase, recombinant, C-terminal hexahistidine tag (protein)
chain: ENSHNKARTSPYPGSKVERSQVPNEKVGWLVEWQDYKPVEYTAVSVLAGPRWADPQISESNFSPKFNEKDGHVERKSKNGLYEIENGRPRNPAGRTGLVGRGLLGRWGPNHAADPIITRWKRDSSGNKIMHPVSGKHILQFVAIKRKDCGEWAIPGGMVDPGEKISATLKREFGEEALNSLQKTSAEKREIEEKLHKLFSQDHLVIYKGYVDDPRNTDNAWMETEAVNYHDETGEIMDNLMLEAGDDAGKVKWVDINDKLKLYASHSQFIKLVAEKRDAHWSEDSEADCHAL
modifications: left off: His6, C-terminal, kept
notes: soluble, Mg2+-dependent mitochondrial ADPR pyrophosphatase, recombinant, C-terminal hexahistidine tag
B1: the “ADPRase activity (conversion of ADPR into AMP and R5P, TLC)” value in data set [4] is recorded as “active ADPRases”. Also, the “decrease of kcat from pH 8.5 to 6.5” value in data set [4] (TLC kinetics) is ~ 1.4 fold. Also, the Enzyme entry in data set [4] is “Yes”. Besides, the kcat in data set [4] (pH 6.5 (RB1)) was 6.4 s⁻¹; in data set [4] (pH 7.1 (RB2)), 7.6 s⁻¹; in data set [4] (pH 8.5 (RB3)) it was 9 s⁻¹ and 9.0 s⁻¹; in data set [7] (previously reported values) it was ~ 8 s^-1. For the same molecule, the Soluble result in data set [6] is “Yes”.
